From the RNAGym collection of RNA variant scans (doi:10.1073/pnas.2313332121)

B1: TPR t1 (parent)
chain: GACCAAUCUGCCCUCAGAGCUCGAGAACAUCUUCGGAUGCAGAGGAGGCAGGCUUCGGUGGCGCGAUAGCGCCAACGUCCUCAACCUCCAAUGCAUCCCACCACAUGAUGAUGCCUGAAGAGCCUUGGUUUUUUG

Variants of: B1
Assay: polymerase ribozyme fitness, log enrichment relative to wild type (log ratio); higher = more active; in vitro selection for triplet polymerase activity
In short: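 Mutant libraries of each subunit of a heterodimeric triplet polymerase ribozyme were built by PCR and transcribed. Each library went through one round of in vitro selection in triplicate: annealing with biotinylated primer, partner subunit and triplets, frozen incubation at −7 °C, gel excision of extended constructs, streptavidin-bead capture and RT-PCR. Input and output libraries were Illumina-sequenced; only genotypes with ≥10 input reads and ≥1 read per output were kept. Fitness is log2(genotype enrichment/wild-type enrichment), using inverse-variance-weighted replicate averages.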

In order of falling “polymerase ribozyme fitness (log ratio)” value:
1. GACCAAUCUGCCCUCAGAGCUCGAGAACAUCUUCGGAUGCAGAGGUGGCAGGCUACGGUGGCGCGAUAGCGCCAACGUCCUCAACCUCCAAUGCAUCCCACCACAUGAUGAUGCCUGAAGGGCCUUGGUUUUUUG [A46U U55A A121G]  0.98
2. GACCAAUCUGCCCUCAGAGCUCGAGAACAUCUUCGGAUGCAGAGGUGGCAGGCUUCGGCGGCGCGAUAGCGCCAACGUCCUCAACCUCCAAUGCAUCCCAUCACAUGAUGAUGCCUGAAGUGCCUUGGUUUUUUG [A46U U59C C101U A121U]  0.445
3. GACCAAUCUGCCCUCAGAGCUCGAGAACAUCUUCGGAUGCAGAGGUGGCAGGCUUCGGUGGCGCGAUAGCGCCAACGCCCUCAACCUCCAAUGCAUCCCACCACAUGAUGAUGCCUGAAGAGCAUUGGUUUUUUG [A46U U78C C124A]  0.325
4. GACCAAUCUGCCCUCAGAGCUCGAGAACAUCUUCGGAUGCAGAGGUGGCAGGCUUCGGUGGCGCGAUAGCGCCAACGUCCUCAACCUCCAAUGCAUCCCACCACAUGAUGAUGCCUGAAAAGCCUUGGUUUUUUG [A46U G120A]  -0.14
5. GACCAAUCUGCCCUCAGAGCUCGAGAACAUCUUCGGAUGCAGAGGUGGCAGGCUUCGGUGGCGCGAUAGCGCCAACGUCCUCAACCUCCAAUGCAUCCCACCACAUGAUGAUGCCUGAAAAGCCUUGGUUUUUUA [A46U G120A G135A]  -0.18
6. GACCAAUCUGCCCUCAGAGCUCGAGAACAUCUUCGGAUGCAGAGGUGGCAGGCUUCGGUGUCGCGAUAGCGCCAACGUCCUCAACCUCCAAUGCAUCCCACCACAUGAUGGUGCCUGAAGAGCCUUGGUUUUUUG [A46U G61U A111G]  -0.291
7. GACCAAUCUGCCCUCAGAGCUCGAGAACAUCUUCGGAUGCAGAGGUGGCAGGCUUCGGUGGCGCGAUAGCGCCAACGUCCUCAACCACCAAUGCAUCCCACCACAUGAUGAUGCCUGAAGAGCCUUGGUUUUUUG [A46U U87A]  -0.324
8. GACCAAUCUGCCCUCAGAGCUCGAGAACAUCUUCGGAUGCAGAGGAAGCAGGCUUCGGUGGCGCGAUAGCGCCAACGUCCUCAACCUCCAAUGCAUCCCACCACAUGAUGAUGCCUGAAGAGCCUUGGUUUUUUG [G47A]  -0.989
9. GACCAAUCUGCCCUCAGAGCUCGAGAACAUCUUCGGAUGCAGAGGUGGCAGGCUUCGGUGGCGCGAUAGCGCCAACGCCCUCAACCUCCAAUGCAUCCCACCACAUGAUGAUGCCUGAAGAGCCUUGGUUUUUUG [A46U U78C]  -1.07
10. GACCAAUCUGCCCUCAGAGCUCGAGAACAUCUUCGGAUGCAGAGGUGGCAGGCUUCGGUGGCGCGAUAGCGCCAACGUCCUCAACCUCCAAUGCAUCCCACCACAUGAUGAGGCCUGAAGAGCCUUGGUUUUUUG [A46U U112G]  -1.08
11. GACCAAUCUGCCCUCAGAGCUCGAGAACAUCUUCGGAUGCAGAGGUGGCAGGCUUCGGUGGCGCGAUAGCGCCAACGUCCUCAACCUCCAAUGCAUCCCACCACAUGAUGAUGCCUGAAGAGCCUUGGUUUAUUG [A46U U132A]  -1.18
12. GACCAAUCUGCCCUCAGAGCUCGAGAACAUCUUCGGAUGCAGAGGUGGCAGGCUUCGGUGGCGCGAUAGCGCCAACGUCCUCAACCGCCAAUACAUCUCACCACAUGAUGAUGCCUGAAGAGCCUUGGUUUUUUG [A46U U87G G93A C98U]  -1.2
13. GACCAAUCUGCCCUCAGAGCUCGAGAACAUCUUCGGAUGCAGAGGUGGCAGGCUUCGGUGGCGCGAUAGCGCCAACGUCCUCAACCUCCAAUGCAUCCCACCACAUGAUGAAGCCUGAAGAGACUUGGUUUUUUG [A46U U112A C123A]  -1.26
14. GACCAAUCUGCCCUCAGAGCUCGAGAACAUCUUCGGAUGCAGAGGUGGCAGGCUUCGGUGGCGCGAUAGCGCCAACAUCCUCAACCUCCAAUGCGUCCCACCACAUGAUGAUGCCUGAAGAGCCUUGGUUUUUUG [A46U G77A A95G]  -1.31
15. GACCAAUCUGCCCUCAGAGCUCGAGAACAUCUUCGGAUGCAGAGGAAGCGGGCUUCGGUGGCGCGAUAGCGCCAACGUCCUCAACCUCCAAUGCAUCCCACCACAUGAUGAUGCCUGAAGAGCCUUGGUUUUUUG [G47A A50G]  -1.37
16. GACCAAUCUGCCCUCAGAGCUCGAGAACAUCUUCGGAUGCAGAGGUGGCAGGCUUCGGUAGCGCGAUAGCGCCAACGUCCUCAACCUCCAAUGCAUCCCACCACAUGAUGAUGCCUGAAGAGCCUUGGUUUUUUG [A46U G60A]  -1.55
17. GACCAAUCUGCCCUCAGAGCUCGAGAACAUCUUCGGAUGCAGAGGUGGCAGGCUUCGGUGCCGCGAUAGCGCCAACGUUCUCAACCUCCAAUGCAUCCCACCACAUGAUGAUGCCUGAAGAGCCUUGGUUUUUUG [A46U G61C C79U]  -1.59
18. GACCAAUCUGCCCUCAGAGCUCGAGAACAUCUUCGGAUGCAGAGGUGGCAGGCUUCGGUGGCGCGAUAGCGCCAACGUCCUCAACCUCCAAUGCAUCCCACCACAUGAUGAUGCCUGAAGAGCCUUGGUUGUUUG [A46U U131G]  -1.62
19. GACCAAUCUGCCCUCAGAGCUCGAGAACAUCUUCGGAUGCAGAGGUGGCAGGCUUCGGUGGCGCGAUAGCAGCAACGUCCUCAACCUCCAAUGCAUCCCACCACAUGAUGAUGCCUGAGGAGCCUUGGUUUUUUG [A46U G71A C72G A119G]  -1.69
20. GACCAAUCUGCCCUCAGAGCUCGAGAACAUCUUCGGAUGCAGAGGUGGCAGGCUUCGGUGGCGCGAUAGCGCCAACGCCCUGAACCUCCAAUGCAUCCCACCACAUGAUGAUGCCUGAAGAGCCUUGGUUUUUUG [A46U U78C C82G]  -1.76
21. GACCAAUCUGCCCUCAGAGCUCGAGAACAUCUUCGGAUGCAGAGGUGGCAGGCUUCGGUGGCGCGAUAGCGCCAACGUCCUCAACCUCCAAUGCAUCCCACCACAUGAUGAUACCUGAAGAGCCUUGGUUUUUUG [A46U G113A]  -1.78
22. GACCAAUCUGCCCUCAGAGCUCGAGAACAUCUUCGGAUGCAGAGGUGGCAGGCUUCGGUGGCGCGAUAGCACCAACGUCCUGAACCGCCAAUGCAUCCCACCACAUGAUGAUGCCUGAAGAGCCUUGGUUUUUUG [A46U G71A C82G U87G]  -1.78
23. GACCAAUCUGCCCUCAGAGCUCGAGAACAUCUUCGGAUGCAGAGGUGGCAGGCUUCGGUGGCGCGAUAGCGCCAACGUCCUCAACCUCCAAUACAUCCCACCACAUGAUGAUGCCUGAAGAGCCUUGGUUUUUUG [A46U G93A]  -1.93
24. GACCAAUCUGCCCUCAGAGCUCGAGAACAUCUUCGGAUGCAGAGGUGGCAGGCUUCGGUGGCGCGAUAGCGCCAACGUCCUCAACCUCCAAUGCAUCCCACCACAUGAUUAUGCCUGAAGAGCCUUGGUUUUUUG [A46U G110U]  -2.33
25. GACCAAUCUGCCCUCAGAGCUCGAGAACAUCUUCGGAUGCAGAGGUGGCAGGCUUCGGUGGCUCGAUAGCGCCAACGUCCUCAACCUCCAAUGCAGCCCACCACAUGAUGAUGCCUGAAGAGCCUUGGUUUUUUG [A46U G63U U96G]  -2.43
26. GACCAAUCUGCCCUCAGAGCUCGAGAACAUCUUCGGAUGCAGAGGUGGCAGGCUUCGGUCGCGCGAUAGCGCCAACGUCCUCAACCUCCAAUGCAUCCCACCACAUGAUGAUGACUGAAGAGCCUUGGUUUUUUG [A46U G60C C114A]  -2.44
27. GACCAAUCUGCCCUCAGAGCUCGAGAACAUCUUCGGAUGCAGAGGUGGCAGGCUUCGGUGGCACGAUAGCGCCAACGUCCUCAACUUCCAAUGCAUCCCACCACAUGAUGAUGCCUGAAGAGCCUUGGUUUUUUG [A46U G63A C86U]  -2.45
28. GACCAAUCUGCCCUCAGAGCUCGAGAACAUCUUCGGAUGCAGAGGUGGCAGGCUUCGGUGGCGCGAUAGCGCCAACAUCCUCAACCUCCAAUGCAUCCCACCACAUGAUGAUGCCUGAAGAGCCUUCGUUUUUUG [A46U G77A G127C]  -2.57
29. GACCAAUCUGCCCUCAGAGCUCGAGAACAUCUUCGGAUGCAGAGGUGGCAGUCUUCGGUGGCGCGAUAGCGCCAACGUCCUCAACCUCCAAUGCAUCCCACCAUAUGAUAAUGCCUGAAGAGCCUUGGUUUUUUG [A46U G52U C104U G110A]  -3.02
30. GACCAAUCUGCCCUCAGAGCUCGAGAACAUCUUCGGAUGCAGAGGUGGCAGGCGUCGGUGGCGCGAUAGCGCCAACGUCCUAAACCUCCAAUGCAUCCCACCACAUGAUUAUGCCUGAAGAGCCUUGGUUUUUUG [A46U U54G C82A G110U]  -3.02
31. GACCAAUCUGCCCUCAGAGCUCGAGAACAUCUUCGGAUGCAGAGGUGGCAGGCUUCGGUGGCGCGAUAGCGCCAACGUCCCCAACCUCCGAUGCAUCCCACCACAUGAUGAUGUCUGAAGAGCCUUGGUUUUUUG [A46U U81C A90G C114U]  -3.58
32. GACCAAUCUGCCCUCAGAGCUCGAGAACAUCUUCGGAUGCAGAGGUGGCAGGCUUCCGUGGCGCGAUAGCGCCAACGUUCUCAAACUCCAAUGCAUCCCACCACAUGAUGAUGCCUGAAUAGCCUUGGUUUUUUG [A46U G57C C79U C85A G120U]  -3.83
33. GACCAAUCUGCCCUCAGAGCUCGAGAACAUCUUCGGAUGCAGAGGUGGCAGGCUUCGGUGGCGCGAUAGCACCAACGUCCUCAACCUCCAAUACAUCCCACCACAUGAUGAUGCCUGAAAAACCUUGGUUUUUUG [A46U G71A G93A G120A G122A]  -3.97
34. GACCAAUCUGCCCUCAGAGCUCGAGAACAUCUUCGGAUGCAGAGGUGGCAGGCUUCGGUGGCGCGAUAGCGCCAACGUCCUCAACCUCCAAUGCAUCCCACCACAUGAUCAUGCCUGAAGAGCCUUGGUUUUUUG [A46U G110C]  -4.29
35. GACCAAUCUGCCCUCAGAGCUCGAGAACAUCUUCGGAUGCAGAGGUGGCAGGCUUCGGUGGCGCGAUAGCGCCAACGUCCCCAACCUCCAAUGCAUCCCAGCACAUGAUGAUGCCUGAAGAGCCUUGGUUUUUUG [A46U U81C C101G]  -4.31
36. GACCAAUCUGCCCUCAGAGCUCGAGAACAUCUUCGGAUGCAGAGGUGGCAGGCGUCGGUGGCGCGAUAUCGCCAACGCCCUCAACCUCCAAUGCAUCCCACCACAUGAUGAUGCCUUAAGAGCCUUGGUUUUUUG [A46U U54G G69U U78C G117U]  -4.42
37. GACCAAUCUGCCCUCAGAGCUCGAGAACAUCUUCGGAUGCAGAGGUGGCAGGCUUCGGUGGCGCAAUAGCGCCAACGUCCUCAACCUCCAAUGCAUCCCACCACAUGAUGAUGCCUGAAGAGCCUUGGUUUUUUG [A46U G65A]  -4.9
38. GACCAAUCUGCCCUCAGAGCUCGAGAACAUCUUCGGAUGCAGAGGUGGCAGGCUUCGGUGGCGCGAUAGCACAAACGUCCUCAACCUCCAGUGCAUCCCACCACAUGAUGAUGCCUGAAGAGCCUUGGUUUUUUG [A46U G71A C73A A91G]  -5.51
39. GACCAAUCUGCCCUCAGAGCUCGAGAACAUCUUCGGAUGCAGAGGUGGCAGGCUUCGGUGGCGCGAUAGCACCAACGUCCUCAAGCUCCAAUGCAUCCCACCACAUGAUGAUGCCUGAAGAACCUUGGUUUUUUG [A46U G71A C85G G122A]  -5.93
40. GACCAAUCUGCCCUCAGAGCUCGAGAACAUCUUCGGAUGCAGAGGUGGCAGGCUUCGGCGGCGCGAUAGCGCCAACGUCCUCAACCUCCAAUGCAUCCCACCACAUGAAGAUGCCUGAAGAGCCUUGGUUUUUUG [A46U U59C U109A]  -5.97
41. GACCAAUCUGCCCUCAGAGCUCGAGAACAUCUUCGGAUGCAGAGGUGGCAGGCUUCGGUGGCUCGAUAGCGCCAACGUCCUCUACCUCCAAUGCAUCCCACCACAUGAUUAUGCCUGAAGAGCCUUGGUUUUUUG [A46U G63U A83U G110U]  -6.56
42. GACCAAUCUGCCCUCAGAGCUCGAGAACAUCUUCGGAUGCAGAGGUGGCAGGCUUCGGUGGCGCCAUAGCGCCAACGUCCUCAACCUCCAAUGCAUCCCACCACAUGAUGAUGCCUGAAGAGCCUUGGUUUUUUG [A46U G65C]  -7.92
